Test results reported in paper PMC11804915, “Single-stranded DNA binding to the transcription factor PafBC triggers the mycobacterial DNA damage response”.

What was measured:
[1] = molecular target: RNAP-sigmaA holoenzyme with RbpA (Mycobacterium smegmatis SMR5 …, UniProt A0QSL8;P60281;A0QS66;A0QWT1;A0QW02;A0QZ11 1-350;1-1169;1-1317;1-107;1-466;1-114); experiment: EMSA; nonspecific binding; ssDNA EMSA: 22.5 mM Hepes-KOH pH 7.8, 135 mM NaCl, 20 mM KCl, 5 mM MgCl2, 1 mM DTT, 37 C 15 min, 10 nM DNA, 0-16 uM PafBC; RNAP EMSA: 20 mM Hepes-NaOH pH 8, 100 mM K-acetate, 36 mM NaCl, 10 mM MgCl2, 2 mM DTT, 37 C 30 min; settings: protein: native, tags: TwinStrep on RpoC, His6 removed from SigA, chain copies: 2;1;1;1;1;1, blunt
[2] = molecular target: T1, PafBC WT (Mycobacterium smegmatis, UniProt A4ZHT0;A0QZ41 1-331;1-318); experiment: EMSA; ssDNA EMSA: 22.5 mM Hepes-KOH pH 7.8, 135 mM NaCl, 20 mM KCl, 5 mM MgCl2, 1 mM DTT, 37 C 15 min, 10 nM DNA, 0-16 uM PafBC; RNAP EMSA: 20 mM Hepes-NaOH pH 8, 100 mM K-acetate, 36 mM NaCl, 10 mM MgCl2, 2 mM DTT, 37 C 30 min; settings: protein: recombinant, tags: C-terminal Strep on PafC, copies: 1;1, label: internal fluorescein-dT
T1 sequence 1: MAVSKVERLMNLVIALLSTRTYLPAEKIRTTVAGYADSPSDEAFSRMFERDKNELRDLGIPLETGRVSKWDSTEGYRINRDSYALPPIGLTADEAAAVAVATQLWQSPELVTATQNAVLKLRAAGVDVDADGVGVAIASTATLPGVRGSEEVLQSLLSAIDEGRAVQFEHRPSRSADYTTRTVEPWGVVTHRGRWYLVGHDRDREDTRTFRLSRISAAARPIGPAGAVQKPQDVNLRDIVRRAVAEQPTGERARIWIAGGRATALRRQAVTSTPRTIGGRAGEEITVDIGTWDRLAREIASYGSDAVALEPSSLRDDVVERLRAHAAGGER
T1 sequence 2: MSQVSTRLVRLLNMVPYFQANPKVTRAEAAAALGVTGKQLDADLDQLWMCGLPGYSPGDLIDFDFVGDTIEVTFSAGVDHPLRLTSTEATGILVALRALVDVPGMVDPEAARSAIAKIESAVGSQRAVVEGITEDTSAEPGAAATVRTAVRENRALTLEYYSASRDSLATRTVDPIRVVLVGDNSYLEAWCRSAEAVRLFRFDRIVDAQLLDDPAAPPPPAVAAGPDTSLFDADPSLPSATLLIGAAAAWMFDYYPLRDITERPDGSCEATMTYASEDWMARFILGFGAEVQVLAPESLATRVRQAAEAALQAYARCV

[3] = molecular target: RNAP-sigmaA holoenzyme with RbpA;CarD;PafBC, PafB Y196A (Mycobacterium smegmatis SMR5 …, UniProt A0QSL8;P60281;A0QS66;A0QWT1;A0QW02;A0QZ11;A0R561;A4ZHT0;A0QZ41 …, ||Y196A); experiment: EMSA; 5 uM dT12 ssDNA; retains association with RNAP; ssDNA EMSA: 22.5 mM Hepes-KOH pH 7.8, 135 mM NaCl, 20 mM KCl, 5 mM MgCl2, 1 mM DTT, 37 C 15 min, 10 nM DNA, 0-16 uM PafBC; RNAP EMSA: 20 mM Hepes-NaOH pH 8, 100 mM K-acetate, 36 mM NaCl, 10 mM MgCl2, 2 mM DTT, 37 C 30 min; settings: protein: native;recombinant;recombinant; tags: TwinStrep on RpoC; His6 removed from SigA;His6-thioredoxin removed by TEV;C-terminal Strep on PafC; chain copies: 2;1;1;1;1;1;1;1;1; label: 5' FAM on strand 1; blunt, internal non-complementary bubble 13 nt
[4] = molecular target: RNAP-sigmaA holoenzyme with RbpA;CarD;PafBC, PafB R181A/R204A/R208A (Mycobacterium smegmatis SMR5 …, UniProt A0QSL8;P60281;A0QS66;A0QWT1;A0QW02;A0QZ11;A0R561;A4ZHT0;A0QZ41 …, ||R204A;R208A;PafB:R181A); experiment: EMSA; 5 uM dT12 ssDNA; PafBC variant does not join RNAP-DNA; ssDNA EMSA: 22.5 mM Hepes-KOH pH 7.8, 135 mM NaCl, 20 mM KCl, 5 mM MgCl2, 1 mM DTT, 37 C 15 min, 10 nM DNA, 0-16 uM PafBC; RNAP EMSA: 20 mM Hepes-NaOH pH 8, 100 mM K-acetate, 36 mM NaCl, 10 mM MgCl2, 2 mM DTT, 37 C 30 min; settings: protein: native;recombinant;recombinant; tags: TwinStrep on RpoC; His6 removed from SigA;His6-thioredoxin removed by TEV;C-terminal Strep on PafC; chain copies: 2;1;1;1;1;1;1;1;1; label: 5' FAM on strand 1; blunt, internal non-complementary bubble 13 nt
[5] = molecular target: RNAP-sigmaA holoenzyme with RbpA;CarD;PafBC, PafB WYL variant (Mycobacterium smegmatis SMR5 …, UniProt A0QSL8;P60281;A0QS66;A0QWT1;A0QW02;A0QZ11;A0R561;A4ZHT0;A0QZ41 …, ||R214A;PafB:R211A); experiment: as above; settings: protein: native;recombinant;recombinant; tags: TwinStrep on RpoC; His6 removed from SigA;His6-thioredoxin removed by TEV;C-terminal Strep on PafC; chain copies: 2;1;1;1;1;1;1;1;1; label: 5' FAM on strand 1; blunt, internal non-complementary bubble 13 nt
[6] = molecular target: RNAP-sigmaA holoenzyme with RbpA;PafBC WT (Mycobacterium smegmatis SMR5 …, UniProt A0QSL8;P60281;A0QS66;A0QWT1;A0QW02;A0QZ11;A4ZHT0;A0QZ41 …, |); experiment: EMSA; 5 uM dT12 ssDNA; PafBC shifts RNAP-DNA band; ssDNA EMSA: 22.5 mM Hepes-KOH pH 7.8, 135 mM NaCl, 20 mM KCl, 5 mM MgCl2, 1 mM DTT, 37 C 15 min, 10 nM DNA, 0-16 uM PafBC; RNAP EMSA: 20 mM Hepes-NaOH pH 8, 100 mM K-acetate, 36 mM NaCl, 10 mM MgCl2, 2 mM DTT, 37 C 30 min; settings: protein: native;recombinant; tags: TwinStrep on RpoC; His6 removed from SigA;C-terminal Strep on PafC; chain copies: 2;1;1;1;1;1;1;1; label: 5' FAM on strand 1; blunt, internal non-complementary bubble 13 nt
[7] = molecular target: RNAP-sigmaA holoenzyme with RbpA;CarD;PafBC, PafC WYL variant (Mycobacterium smegmatis SMR5 …, UniProt A0QSL8;P60281;A0QS66;A0QWT1;A0QW02;A0QZ11;A0R561;A4ZHT0;A0QZ41 …, ||R201A;R204A); experiment: EMSA; 5 uM dT12 ssDNA; efficiency similar to WT; ssDNA EMSA: 22.5 mM Hepes-KOH pH 7.8, 135 mM NaCl, 20 mM KCl, 5 mM MgCl2, 1 mM DTT, 37 C 15 min, 10 nM DNA, 0-16 uM PafBC; RNAP EMSA: 20 mM Hepes-NaOH pH 8, 100 mM K-acetate, 36 mM NaCl, 10 mM MgCl2, 2 mM DTT, 37 C 30 min; settings: protein: native;recombinant;recombinant; tags: TwinStrep on RpoC; His6 removed from SigA;His6-thioredoxin removed by TEV;C-terminal Strep on PafC; chain copies: 2;1;1;1;1;1;1;1;1; label: 5' FAM on strand 1; blunt, internal non-complementary bubble 13 nt
[8] = molecular target: RNAP-sigmaA holoenzyme with RbpA;CarD;PafBC WT (Mycobacterium smegmatis SMR5 …, UniProt A0QSL8;P60281;A0QS66;A0QWT1;A0QW02;A0QZ11;A0R561;A4ZHT0;A0QZ41 …, ||); experiment: EMSA; ssDNA …; no effect of CarD on complex formation; ssDNA EMSA: 22.5 mM Hepes-KOH pH 7.8, 135 mM NaCl, 20 mM KCl, 5 mM MgCl2, 1 mM DTT, 37 C 15 min, 10 nM DNA, 0-16 uM PafBC; RNAP EMSA: 20 mM Hepes-NaOH pH 8, 100 mM K-acetate, 36 mM NaCl, 10 mM MgCl2, 2 mM DTT, 37 C 30 min; settings: protein: native;recombinant;recombinant; tags: TwinStrep on RpoC; His6 removed from SigA;His6-thioredoxin removed by TEV;C-terminal Strep on PafC; chain copies: 2;1;1;1;1;1;1;1;1; label: 5' FAM on strand 1; blunt, internal non-complementary bubble 13 nt
[9] = molecular target: T2, PafBC WT, cryo-EM sample (Mycobacterium smegmatis, UniProt A4ZHT0;A0QZ41 1-331;1-318); experiment: cryo-EM; within RNAP-sigmaA promoter complex; formaldehyde-fixed; second entry 9FNE; ssDNA EMSA: 22.5 mM Hepes-KOH pH 7.8, 135 mM NaCl, 20 mM KCl, 5 mM MgCl2, 1 mM DTT, 37 C 15 min, 10 nM DNA, 0-16 uM PafBC; RNAP EMSA: 20 mM Hepes-NaOH pH 8, 100 mM K-acetate, 36 mM NaCl, 10 mM MgCl2, 2 mM DTT, 37 C 30 min; settings: protein: recombinant; copies: 1;1; single strand
T2 sequence 1: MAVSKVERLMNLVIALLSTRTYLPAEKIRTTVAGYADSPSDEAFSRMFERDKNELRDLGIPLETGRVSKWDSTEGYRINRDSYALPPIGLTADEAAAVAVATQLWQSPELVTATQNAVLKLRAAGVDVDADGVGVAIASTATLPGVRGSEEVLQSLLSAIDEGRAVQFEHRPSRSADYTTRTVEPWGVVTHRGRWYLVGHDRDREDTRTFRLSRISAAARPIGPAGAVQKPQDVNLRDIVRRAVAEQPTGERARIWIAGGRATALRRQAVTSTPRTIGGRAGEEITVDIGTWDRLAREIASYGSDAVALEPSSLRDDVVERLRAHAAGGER
T2 sequence 2: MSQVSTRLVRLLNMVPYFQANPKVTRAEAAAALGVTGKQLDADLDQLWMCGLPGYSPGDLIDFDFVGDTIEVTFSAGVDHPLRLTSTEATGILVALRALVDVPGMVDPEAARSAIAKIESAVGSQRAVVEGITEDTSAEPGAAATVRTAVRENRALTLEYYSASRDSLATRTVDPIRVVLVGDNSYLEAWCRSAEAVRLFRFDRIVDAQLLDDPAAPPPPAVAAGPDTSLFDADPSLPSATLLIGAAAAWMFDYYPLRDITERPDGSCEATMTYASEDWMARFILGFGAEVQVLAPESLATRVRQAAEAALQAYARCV

[10] = molecular target: T1, PafBC WT; experiment: analytical gel filtration; ssDNA:PafBC stoichiometry ~1:1; ssDNA EMSA: 22.5 mM Hepes-KOH pH 7.8, 135 mM NaCl, 20 mM KCl, 5 mM MgCl2, 1 mM DTT, 37 C 15 min, 10 nM DNA, 0-16 uM PafBC; RNAP EMSA: 20 mM Hepes-NaOH pH 8, 100 mM K-acetate, 36 mM NaCl, 10 mM MgCl2, 2 mM DTT, 37 C 30 min; settings: protein: recombinant; tags: C-terminal Strep on PafC; copies: 1;1; single strand

B1: nonspecific DNA with bubble (dsDNA)
DNA 1: GTCGTGAAGGACACCGCCGAAGCGCCCAAGACGGCCGACGAGAAAGCCGCCGAGGCCACCGGGCCCAGCAAGGTCAA
DNA 2: TTGACCTTGCTGGGCGTCAGCATGCGAACGGCTTTCTCGTCGGCCGTCTTGGGCGCTTCGGCGGTGTCCTTCACGAC
binding result ([1]; label: 5' FAM on strand 1, internal non-complementary bubble): binds

B2: housekeeping promoter with -10 bubble (dsDNA)
DNA 1: CCCCGTTTTGGGGCAGATGCGATTCTGAAATACTGCTTTGTCTGGCTTGTCAAGTCGCTCTGGACCGGGTTGTTTTC
DNA 2: GAAAACAACCCGGTCCAGAGCGACTTGACAAGCCAGACAAAGCAGTATTAAGCTGGCAGGGTTGCCCCAAAACGGGG
binding result ([1]; label: 5' FAM on strand 2, internal non-complementary bubble): binds

B3: hairpin DNA control (structured_DNA)
DNA: GGGCCCGGGCCCGGTATATCCGGGCCCGGGCCC
binding result ([2]; hairpin, 14 bp stem, 5 nt loop): no binding

B4: blocked end ssDNA (dT12 between two hairpins) (structured_DNA)
DNA: GGGCCCGGGCCCGGTATATCCGGGCCCGGGCCCTTTTTTTTTTTTCCCGGGCCCGGGCCTATATGGCCCGGGCCCGGG
binding result ([2]; two hairpins, 14 bp stems, 5 nt loops): binds

B5: PafBC-specific promoter with -10 bubble (dsDNA)
DNA 1: TCGTCTACTGTGGTGAAGAGTTCGACCGGACTTGTCGGTGGTCTGCTCTAACGTCACGGCCAACCGATCGGAACACC
DNA 2: GGTGTTCCGATCGGTACCGGACATGTAAAGAGCAGACCACCGACAAGTCCGGTCGAACTCTTCACCACAGTAGACGA
binding result [3]: binds
binding result [4]: no binding
binding result [5]: no binding
binding result [6]: binds
binding result ([1]; label: 5' FAM on strand 1, internal non-complementary bubble 13 nt): binds
binding result [7]: binds
binding result [8]: binds

B6: cryo-EM ssDNA ligand (ssDNA)
DNA: TTGTTGTTGTT
binding result [9]: binds

B7: dT20 ssDNA unlabeled (ssDNA)
DNA: TTTTTTTTTTTTTTTTTTTT
binding result [10]: binds
